Experimental data taken from the supplement of paper PMC9170038.

System: MS2 coat protein
Assay: apparent KD of MS2 coat protein; higher = weaker reporter binding
Conditions: Eterna round: R107
How it was run: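 With or without constant ligand, designed RNA switches in 100 mM Tris-HCl pH 7.5, 80 mM KCl and 4 mM MgCl2 were titrated with SNAP-549-labelled MS2 coat protein. Concentrations went up in twofold steps from 0.7 or 1.5 nM to 3 µM. The switches had been transcribed on-chip from Illumina sequencing clusters, and apparent KD is the per-design median of normalised cluster binding-curve fits.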

[1] = input ligand: theophylline 20 uM
[2] = input ligand: theophylline 2 mM
[3] = input ligand: tryptophan 2.4 mM

Sequence | apparent KD of MS2 coat protein (input ligand: arginine 13.2 mM) [nM] | apparent KD of MS2 coat protein (input ligand: none) [nM] | apparent KD of MS2 coat protein [1] [nM] | apparent KD of MS2 coat protein [2] [nM] | apparent KD of MS2 coat protein [3] [nM]
ACGUAAAGCAGAAGGAGCGUCUUCAAAUUACAUGAGGAUCACCCAUGUUUUGUGAUCAUAUGACAGGUAGGUCGCUGAAGUACGA [JR_SSArginiB_Sub003] | 58.3 | 71.7 | 97.5 | 86.4 | 66.5
ACAGGAAACGGAAGGAGCGGAAUUGCAACAUGAGGAUCACCCAUGUUGAUCGUGAGUUGCUUCCAGGUAGGUCGCCGUUACCUAA [Erorve] | 30.1 | 33.6 | 39.4 | 44.2 | 30.4
UUGGGUUUGUGAAGGAGCGGGAAUGUUUUAUAGUGGAUCCUAACAUGAGGAUCACCCAUGUCCCAGGUAGGUCGCGCGGGUUUGG [12.S] | 40.1 | 64.8 | 100 | 79.9 | 55.5
UCGUUUGAGGCGGCCGCCACUGGUCUCAUGGUCAACAUGAGGAUCACCCAUGUAUCUUUGCCAAGCAGGACCGGGCCUCGAGCGA [#20 Exclusion Tryptophan B] | 28.1 | 23.6 | 41.4 | 29.1 | 14.8
GUAUGGAAACAUACUAGGGUAUCGUGAGAUACCAGUACAGAAAUGUACCCUUGGCAGCUCGCGCAUACAUGAGGAUCACCCAUGU [Ex Theophylline A 9] | 19.4 |  | 26.9 |  | 19.7
UGUAUGGGAACAUGAGGAUCACCCAUGUGGCGAGGACCGGUACGGCCGCCACUCGAGCAGCAAGCGUGUAUGACGCUGCUGCAUG [ss-trypA-0mod] | 225 | 312 | 377 | 324 | 136
AAUAAACAUGAGGAUCACCCAUGUAGGGUGCGAGGACCGGUACGGCCGCCACUCGGGUGAAAACAUGAAAAUCACCCAUGUAAAA [Mat - Exclusion - Trytophan A - D24] | 113 | 125 | 192 | 206 | 232
ACAUGAACAUGAGGAUCACCCAUGUGGGAUACCAGCGUGUAUGAGCGCCCUUGGCAGCUCAUGACAUGAGGAUCACCCAUGUUGG [Exclusion Theophylline A 4] | 154 |  | 242 |  | 224
ACAUGAGGAUCACCCAUGUACAUAAGGGAAGGAGCGCGGUGAAACGCAGGUAGGUCGCCCAUAAUAACAAUAAAUAAAUUCAUGU [LeftA1] | 19.8 | 13.5 | 21 | 19 | 15.8
GGCCAUGGAAACAUGGCGGCGGCAUAUGCGCGAGGACCGGUACGGCCGCCACUCGGGCAACAUGAGGAUCACCCAUGUUCCUCAU [ETA NP+V+V2 #24 +-Same Structure] | 67.4 |  | 356 | 388 | 
AAUAAUAGGUGAUCCUAACGAGUGGCAUAACGAGGACCGGUACGGCCGCCACUCGAACAUGAGGAUCACCCAUGUAGUCACUCGA [M'-T'-T-MS2-T'' - Design 5] | 82.9 |  | 280 | 751 | 
AGAUUCGACACGGCCGCCACUUUCAGUGGCUGGUCACAUGGUGCACAUGAGGAUCACCCAUGUGGAAGGACCGGGUGUUGAGUCU [XTryp B #25] | 23 |  | 45.2 | 38.3 | 
GGACUAACUCGAAGGAGCGACGCGCAGAAACUGCAAUUUCCUCCACACGAGGAUCACCCGUGUCAGGUAGGUCGCGAGUUAGUCG [ArgBX 29] | 14.9 | 12.8 | 18.6 | 14.7 | 16
UUGACAUGAGGAUCACCCAUGUAAACUGAAGGAGCGUCGAAAAUGACAGGUAGGUCGCAGAAUAAUAAUGGUGAUCGUAAAUAUU [#12 Exclusion - Arginine A] | 42.6 | 79 | 79.9 | 83.9 | 63
UUAGUAACGACGGCCGCCACUGAUUUUGGACAUGAGGAUCACCCAUGUAAAGAUCCUAGAAUGGUCAGGACCGGGUCUGAUAAUG [Exclusion Tryptophane B GF4] | 35 | 35.3 | 40 | 54 | 64.4
AACAGGGCUCGCACGAAGCCCUAAGGUGAUACCAGCACAUGUAAGUGCCCUUGGCAGCACGGUACAUGAGGAUCACCCAUGUAGA [Isleenen] | 19.7 |  | 182 |  | 59.4
AAACGUUGCUGCGAUACCAGACAUGAGGAUCACCCAUGUACCGAGGUACCCGAAAGGAAUGUCCCUUGGCAGCGCAGCAACGAAA [MAT - Exclusion Theophlline B - Mod of Eli - D24] | 11.2 | 11.7 | 15.3 | 124 | 11.7
GGAUGGAACUCGGCCGCCACUGGUGAUCCUAAUGUACAUGAGGAUCACCCAUGUACAUGAGAAGAUAGGACCGGGAGAUAACAUG [V5] | 23.5 |  | 31.2 | 29.4 | 
CGAACAUGAGGAUCACCCAUGUUAACCGAAGGAGCGGCGCAUAAGUCAGGUAGGUCGCGGUAGAUGAAAUAGAGCAGUGGUGACA [#01 Same State - Arginine A] | 24.4 | 31.7 | 45 | 32 | 27

Sequence | apparent KD of MS2 coat protein (input ligand: arginine 13.2 mM) [nM] | apparent KD of MS2 coat protein (input ligand: none) [nM] | apparent KD of MS2 coat protein [1] [nM] | apparent KD of MS2 coat protein [2] [nM] | apparent KD of MS2 coat protein [3] [nM]
AGAUUCGACACGGCCGCCACUCGUGACAGAUUUCGCAGUGGUCAACAUGAGGAUCACCCAUGUCUGAGGACCGGGUGUUGAGUCU [XTryp B #9] | 36.4 |  | 39.3 | 41.1 | 
AGCUCGCAUCCUCUAGCGUCAAAGACGCGUCGAGGACCGGUACGGCCGCCACUCGACUUGAGGAUCACCCAGGUCAAAGCGAGCA [TrypAX 13 #SwitchBubble #AlternativeMS2 #MS2Late #CuTurnoff] | 148 | 545 | 488 | 631 | 138
AAUGGUGGAACGAAGUACAGGAGUACAAAUCGAGGACCGGUACGGCCGCCACUCGCGAAAGAACAUGAGGAUCACCCAUGUAAAA [theeternabot_exclusion_MS2_Trp_A_34] | 12.1 | 8.09 | 21.8 | 177 | 11.1
ACGUAAUGCAGAAGGAGCGUCUUUUUAAAACAUGAGGAUCACCCAUGUAAUAUUUAUGGGAGACAGGUAGGUCGCUGAAGUACGA [JR_SSArginiB_Sub006] | 30.3 | 23.5 | 32.3 | 22.3 | 25.3
AGAGUUAGACAAAAGUCUAGCUCACCAGAAGGAGCGUCCGAAAGGACAGGUAGGUCGCUGGUGCACGAGGAUCACCCGUGUUCCU [ArgAS 21 #OpenEnded #AlternativeMS2] | 57.9 | 80.6 | 90.2 | 118 | 67.3
AACAAUGCACAUGAGGAUCACCCAUGUGAUACCAGCCGCAACAUAGGCCCUUGGCAGCAUGUGGGUAUAGAACGAUUUGGCUGAA [Xeanle] | 24.4 |  | 85.3 |  | 41.7
UUAUUUAUAAAUGAUACCAGCCGAUUGGCCGCAAAUCCUAACAUGAGGAUCACCCAUGUCGGCCCUUGGCAGCAUUUAUGGGUUU [XTheo B #28] | 56 |  | 134 |  | 65.1
CCGCCCUACCGCGAUACCAGUACGGCAGUUAACAUGAGGAUCACCCAUGUGCAAACAUAAUACCCUUGGCAGCGCCUGAAUCCAU [theeternabot_sameState_MS2_Theo_B_12] | 15.7 |  | 29.2 |  | 15.6
GCCAUCGGCGGAAGCCGAUGGUAUACAGAAGGAGCGUAGGAAACUACAGGUAGGUCGCUGGACAUGAGGAUCACCCAUGUAAUAG [#27 Same State - Arginine A] | 22.2 | 15.2 | 26.7 | 17.5 | 21.8
AGUCUUAAUGGAAGGAGCGCAGUCAUAACAUGAGGAUCACCCAUGUCGAGGUGAGGGUCAUUGCAGGUAGGUCGCCAUACUAGAA [Same State - Arginine B (Freestyle 1)] | 131 | 153 | 222 | 186 | 125
UCUGGGUGCGCAAGGACCUGGAGUUGCGAUACCAGCACGGUAACGUGCCCUUGGCAGCGCACAUGAGGAUCACCCAUGUGGUGUU [#1 Exclusion - Theophylline A Attempt #18 (HarryS)] | 65.6 |  | 247 |  | 204
AAAUAAACAUCGGCCGCCACUUACUCAUGAGGUAACAACAUGAGGAUCACCCAUGUUUGAGGAUCAAGGACCGGGAUGUAAUAAA [AstrosSSTryB#1] | 23.1 | 27.3 | 33.6 | 32.9 | 19.6
AGUACUCGAACGGAUACCAGCCGGACAUGAGGAUCACCCAUGUCCUACCAUUGUUCGGUUGGCCCUUGGCAGCCGUUCGUGUACA [Omei Theo B SS A v4] | 125 | 930 | 366 | 26.7 | 591
AAUAACAUGAGGAUCACCCAUGUAAGUAAACGAGGACCGGUACGGCCGCCACUCGAAUAAAUAAAGUACCGGUAAGAUCCAGGGA [Default title] | 14.6 |  | 19 | 15.4 | 
AAAAUAAAUAAAACGCGUAACAUGAAGGAUACCAGCCAGAAAACUGGCCCUUGGCAGCCUCUACAUGAGGAUCACCCAUGUCGCG [Mat - Same State Theophlline A - Mod of Eli - D15] | 161 |  | 141 |  | 332
CGUGCUAGGGCGGCCGCCACUGUGGCUACGGUACAUGAGGAUCACCCAUGUUUGUGGUUGAUCUACAGGACCGGGCCCUGGCACG [Radiaerdi] | 131 | 107 | 442 | 756 | 280
GGGUCAGGCGCGGCCGCCACUGCGGUGAUGUGACAUGAGGAUCACCCAUGUUGUCAUGUGGCACAUAGGACCGGGUGCCUGGCCC [#1 Exclusion - Tryptophan B Attempt #6 (HarryS)] | 28.3 |  | 50.2 | 33.8 | 
AAUUAUUACGGAAGGAGCGUCUUUCGGCUCAAACAUGAGGAUCACCCAUGUGAUUUUGAAUGACAGGUAGGUCGCCGAUAUUUGA [JR_AAArginiB_Sub030] | 24.4 | 26.4 | 41.5 | 32.1 | 25.2
CUUACGGGAAACCGACCCAAACAACGGGAAGGAGCGCCAAACAAGGCAGGUAGGUCGCCCACAUGAGGAUCACCCAUGUGUUGGG [Exclusion Arginine A GF 26] | 42.6 | 38 | 47.7 | 42.3 | 45.1
